Laboratory results: PMC6298698

Key:
[1] = biological target: mouse Slo1 (mSlo1) BK channel α subunit, mbr5 splice variant (mouse)
[2] = biological target: mouse Slo1 (mSlo1) BK channel α subunit, mbr5 splice variant (mouse); remark: listed apart in the source

B1: human BK channel β2 subunit C1S (C84S) (natural protein)
chain: MFIWTSGRTSSSYRHDEKRNIYQKIRDHDLLDKRKTVTALKAGEDRAILLGLAMMVCSIMMYFLLGITLLRSYMQSVWTEESQSTLLNASITETFNCSFSCGPDCWKLSQYPCLQVYVNLTSSGEKLLLYHTEETIKINQKCSYIPKCGKNFEESMSLVNVVMENFRKYQHFSCYSDPEGNQKSVILTKLYSSNVLFHSLFWPTCMMAGGVAIVAMVKLTQYLSLLCERIQRINR
With B1 as the binder, how does the unbinding probability (q), from the non-inactivating offset of currents, inside-out patches of HEK293 cells, 10 μM Ca2+ [1] read?
Its unbinding probability (q), from the non-inactivating offset of currents, inside-out patches of HEK293 cells, 10 μM Ca2+ is 0.48.

What about the experimental rectification ratio Rβ2* of mSlo1+β2(C1S), not corrected for unbinding [2] of the same binder?
The experimental rectification ratio Rβ2* of mSlo1+β2(C1S), not corrected for unbinding was 1.22.

B2: human BK channel β2 subunit C2S (C97S) (natural protein)
chain: MFIWTSGRTSSSYRHDEKRNIYQKIRDHDLLDKRKTVTALKAGEDRAILLGLAMMVCSIMMYFLLGITLLRSYMQSVWTEESQCTLLNASITETFNSSFSCGPDCWKLSQYPCLQVYVNLTSSGEKLLLYHTEETIKINQKCSYIPKCGKNFEESMSLVNVVMENFRKYQHFSCYSDPEGNQKSVILTKLYSSNVLFHSLFWPTCMMAGGVAIVAMVKLTQYLSLLCERIQRINR
How did the unbinding probability (q), from the non-inactivating offset of currents, inside-out patches of HEK293 cells, 10 μM Ca2+ [1] turn out when B2 was run?
Its unbinding probability (q), from the non-inactivating offset of currents, inside-out patches of HEK293 cells, 10 μM Ca2+ is 0.09.

What about the experimental rectification ratio Rβ2* of mSlo1+β2(C2S), not corrected for unbinding [2] of the same binder?
The experimental rectification ratio Rβ2* of mSlo1+β2(C2S), not corrected for unbinding was 1.43.

B3: human BK channel β2 subunit C8S (C174S) (natural protein)
chain: MFIWTSGRTSSSYRHDEKRNIYQKIRDHDLLDKRKTVTALKAGEDRAILLGLAMMVCSIMMYFLLGITLLRSYMQSVWTEESQCTLLNASITETFNCSFSCGPDCWKLSQYPCLQVYVNLTSSGEKLLLYHTEETIKINQKCSYIPKCGKNFEESMSLVNVVMENFRKYQHFSSYSDPEGNQKSVILTKLYSSNVLFHSLFWPTCMMAGGVAIVAMVKLTQYLSLLCERIQRINR
How did the unbinding probability (q), from the non-inactivating offset of currents, inside-out patches of HEK293 cells, 10 μM Ca2+ [1] turn out when B3 was run?
The unbinding probability (q), from the non-inactivating offset of currents, inside-out patches of HEK293 cells, 10 μM Ca2+ was 0.38.

B4: human BK channel β2 subunit C5S (C113S) (natural protein)
chain: MFIWTSGRTSSSYRHDEKRNIYQKIRDHDLLDKRKTVTALKAGEDRAILLGLAMMVCSIMMYFLLGITLLRSYMQSVWTEESQCTLLNASITETFNCSFSCGPDCWKLSQYPSLQVYVNLTSSGEKLLLYHTEETIKINQKCSYIPKCGKNFEESMSLVNVVMENFRKYQHFSCYSDPEGNQKSVILTKLYSSNVLFHSLFWPTCMMAGGVAIVAMVKLTQYLSLLCERIQRINR
Which unbinding probability (q), from the non-inactivating offset of currents, inside-out patches of HEK293 cells, 10 μM Ca2+ [1] does the source give for B4 here?
The unbinding probability (q), from the non-inactivating offset of currents, inside-out patches of HEK293 cells, 10 μM Ca2+ was 0.66.

B5: human BK channel β2 subunit C7S (C148S) (natural protein)
chain: MFIWTSGRTSSSYRHDEKRNIYQKIRDHDLLDKRKTVTALKAGEDRAILLGLAMMVCSIMMYFLLGITLLRSYMQSVWTEESQCTLLNASITETFNCSFSCGPDCWKLSQYPCLQVYVNLTSSGEKLLLYHTEETIKINQKCSYIPKSGKNFEESMSLVNVVMENFRKYQHFSCYSDPEGNQKSVILTKLYSSNVLFHSLFWPTCMMAGGVAIVAMVKLTQYLSLLCERIQRINR
B5 was tested. Which unbinding probability (q), from the non-inactivating offset of currents, inside-out patches of HEK293 cells, 10 μM Ca2+ [1] did it give?
The unbinding probability (q), from the non-inactivating offset of currents, inside-out patches of HEK293 cells, 10 μM Ca2+ was 0.08.

B6: human BK channel β2 subunit C6S (C142S) (natural protein)
chain: MFIWTSGRTSSSYRHDEKRNIYQKIRDHDLLDKRKTVTALKAGEDRAILLGLAMMVCSIMMYFLLGITLLRSYMQSVWTEESQCTLLNASITETFNCSFSCGPDCWKLSQYPCLQVYVNLTSSGEKLLLYHTEETIKINQKSSYIPKCGKNFEESMSLVNVVMENFRKYQHFSCYSDPEGNQKSVILTKLYSSNVLFHSLFWPTCMMAGGVAIVAMVKLTQYLSLLCERIQRINR
How did the unbinding probability (q), from the non-inactivating offset of currents, inside-out patches of HEK293 cells, 10 μM Ca2+ [1] turn out when B6 was run?
Its unbinding probability (q), from the non-inactivating offset of currents, inside-out patches of HEK293 cells, 10 μM Ca2+ is 0.41.

B7: human BK channel β2 subunit C3S (C101S) (natural protein)
chain: MFIWTSGRTSSSYRHDEKRNIYQKIRDHDLLDKRKTVTALKAGEDRAILLGLAMMVCSIMMYFLLGITLLRSYMQSVWTEESQCTLLNASITETFNCSFSSGPDCWKLSQYPCLQVYVNLTSSGEKLLLYHTEETIKINQKCSYIPKCGKNFEESMSLVNVVMENFRKYQHFSCYSDPEGNQKSVILTKLYSSNVLFHSLFWPTCMMAGGVAIVAMVKLTQYLSLLCERIQRINR
B7 was tested. Which unbinding probability (q), from the non-inactivating offset of currents, inside-out patches of HEK293 cells, 10 μM Ca2+ [1] did it give?
The unbinding probability (q), from the non-inactivating offset of currents, inside-out patches of HEK293 cells, 10 μM Ca2+ was 0.09.

B8: human BK channel β2 subunit C4S (C105S) (natural protein)
chain: MFIWTSGRTSSSYRHDEKRNIYQKIRDHDLLDKRKTVTALKAGEDRAILLGLAMMVCSIMMYFLLGITLLRSYMQSVWTEESQCTLLNASITETFNCSFSCGPDSWKLSQYPCLQVYVNLTSSGEKLLLYHTEETIKINQKCSYIPKCGKNFEESMSLVNVVMENFRKYQHFSCYSDPEGNQKSVILTKLYSSNVLFHSLFWPTCMMAGGVAIVAMVKLTQYLSLLCERIQRINR
Which unbinding probability (q), from the non-inactivating offset of currents, inside-out patches of HEK293 cells, 10 μM Ca2+ [1] does the source give for B8 here?
The unbinding probability (q), from the non-inactivating offset of currents, inside-out patches of HEK293 cells, 10 μM Ca2+ was 0.08.

B9: human BK channel β2 subunit (KCNMB2), wild type (natural protein)
chain: MFIWTSGRTSSSYRHDEKRNIYQKIRDHDLLDKRKTVTALKAGEDRAILLGLAMMVCSIMMYFLLGITLLRSYMQSVWTEESQCTLLNASITETFNCSFSCGPDCWKLSQYPCLQVYVNLTSSGEKLLLYHTEETIKINQKCSYIPKCGKNFEESMSLVNVVMENFRKYQHFSCYSDPEGNQKSVILTKLYSSNVLFHSLFWPTCMMAGGVAIVAMVKLTQYLSLLCERIQRINR
Which unbinding probability (q), from the non-inactivating offset of currents, inside-out patches of HEK293 cells, 10 μM Ca2+ [1] does the source give for B9 here?
Its unbinding probability (q), from the non-inactivating offset of currents, inside-out patches of HEK293 cells, 10 μM Ca2+ is 0.07.
